The source of these data is patent US20220251170A1 (KOREA INSTITUTE OF SCIENCE AND TECHNOLOGY, published 2022).

The target in the test is T1, human CD47 on the surface of HT29 and Raji tumor cells (human, UniProt Q08722 19-323).
T1 construct: whole, on cells; also called cell surface CD47
In words: cell binding assay, flow cytometry, anti-Myc detection (FIG. 15A). The protocol:
Cell binding analysis according to one embodiment of the present invention was carried out by culturing HT29 human colon adenocarcinoma (ATCC), Raji human B cell lymphoma (ATCC) and CT26.CL25 mouse colon cancer cells (ATCC) in RPMI-1640 culture medium supplemented with 10% FBS and 1% antibiotics and the cultures were maintained at 37° C. and 5% CO₂. HT29 and Raji cells were then cultured with the addition of an anti-human CD47 antibody (B6H12.2, Abcam, ab3283) and CT26.CL25 cells were incubated with anti-mouse CD47 antibody (Santa Cruz, sc-12731). For cell binding assays, HT29, Raji and CT26.CL25 cells (1×10⁶) were incubated at 4° C. for 30 minutes with the addition of PBS, exosomes or mSIRPα, respectively. The cells were then incubated with anti-Myc antibodies (1:400, Abcam, ab9106) and detected by the addition of Alexa fluor 488-conjugated secondary antibody (1:800, Jackson ImmunoResearch). The cells were then measured using an Accuri™ C6 flow cytometer (BD Biosciences) and analyzed using FlowJo_V10 software (FlowJo). The binding specificity of SIRPα-exosomes to CD47 was analyzed by block experiments through pre-incubation of cells with anti-human CD47 antibody (1:100, Abcam, ab3283).
In general terms: Flow cytometry measures light scatter and fluorescence of single cells or particles in a stream.

T1 sequence (Q08722 19-323): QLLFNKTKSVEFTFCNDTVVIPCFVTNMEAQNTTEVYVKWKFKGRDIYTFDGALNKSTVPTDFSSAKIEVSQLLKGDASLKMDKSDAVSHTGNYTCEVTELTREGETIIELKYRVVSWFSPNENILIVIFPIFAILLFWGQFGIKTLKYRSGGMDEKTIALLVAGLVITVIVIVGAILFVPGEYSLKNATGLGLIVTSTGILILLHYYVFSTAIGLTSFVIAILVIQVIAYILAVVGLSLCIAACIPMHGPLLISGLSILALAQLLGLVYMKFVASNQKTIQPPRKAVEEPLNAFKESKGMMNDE

B1: purified recombinant SIRPα-Myc monomer protein (mSIRPα) (receptor)
chain: EEELQIIQPDKSVLVAAGETATLRCTITSLFPVGPIQWFRGAGPGRVLIYNQRQGPFPRVTTVSDTTKRNNMDFSIRIGNITPADAGTYYCIKFRKGSPDDVEFKSGAGTELSVRAKP
notes: Expressed in bacteria from pET-28a (Nde I-SIRPα variant-Myc-Hind III), purified on Ni-NTA; also called monomeric SIRPα protein; recombinant SIRPα protein; not shown: N-terminal histidine tag from pET-28a; C-terminal Myc tag
For the molecule B1, the binding result is “binds”.
